Measured values taken from patent US20250136681A1.

Target: IL-2 receptor (human)
Test: cell-based or functional assay

wild type recombinant IL-2 (ligand)
EC50 of pSTAT5 increase on CD56brightCD16- NK cells (intracellular flow cytometry, human PBMCs): 60 pM
